{
  "source": "patent US20090099029A1",
  "about": "“Methods and substrates for conducting assays” (Invitrogen Corporation, priority 2005, published 2009)",
  "molecules": {"B1": {"name": "RPS6KB1(p70S6K) (protein)", "chain": "MRRRRRRDGFYPAPDFRDREAEDMAGVFDIDLDQPEDAGSEDELEEGGQLNESMDHGGVGPYELGMEHCEKFEISETSVNRGPEKIRPECFELLRVLGKGGYGKVFQVRKVTGANTGKIFAMKVLKKAMIVRNAKDTAHTKAERNILEEVKHPFIVDLIYAFQTGGKLYLILEYLSGGELFMQLEREGIFMEDTACFYLAEISMALGHLHQKGIIYRDLKPENIMLNHQGHVKLTDFGLCKESIHDGTVTHTFCGTIEYMAPEILMRSGHNRAVDWWSLGALMYDMLTGAPPFTGENRKKTIDKILKCKLNLPPYLTQEARDLLKKLLKRNAASRLGAGPGDAGEVQAHPFFRHINWEELLARKVEPPFKPLLQSEEDVSQFDSKFTRQTPVDSPDDSTLSESANQVFLGFEYVAPSVLES", "modifications": "left off: a dimerising Fc or GST"}, "B2": {"name": "EPHB4 (protein)", "chain": "LCLRKQSNGREAEYSDKHGQYLIGHGTKVYIDPFTYEDPNEAVREFAKEIDVSYVKIEEVIGAGEFGEVCRGRLKAPGKKESCVAIKTLKGGYTERQRREFLSEASIMGQFEHPNIIRLEGVVTNSMPVMILTEFMENGALDSFLRLNDGQFTVIQLVGMLRGIASGMRYLAEMSYVHRDLAARNILVNSNLVCKVSDFGLSRFLEENSSDPTYTSSLGGKIPIRWTAPEAIAFRKFTSASDAWSYGIVMWEVMSFGERPYWDMSNQDVINAIEQDYRLPPPPDCPTSLHQLMLDCWQKDRNARPRFPQVVSALDKMIRNPASLKIVARENGGASHPLLDQRQPHYSAFGSVGEWLRAIKMGRYEESFAAAGFGSFELVSQISAEDLLRIGVTLAGHQKKILASVQHMKSQAKPGTPGGTGGPAPQY", "modifications": "left off: small tags and cut ends"}, "B3": {"name": "RPS6KA4(MSK2) (protein)", "chain": "MGDEDDDESCAVELRITEANLTGHEEKVSVENFELLKVLGTGAYGKVFLVRKAGGHDAGKLYAMKVLRKAALVQRAKTQEHTRTERSVLELVRQAPFLVTLHYAFQTDAKLHLILDYVSGGEMFTHLYQRQYFKEAEVRVYGGEIVLALEHLHKLGIIYRDLKLENVLLDSEGHIVLTDFGLSKEFLTEEKERTFSFCGTIEYMAPEIIRSKTGHGKAVDWWSLGILLFELLTGASPFTLEGERNTQAEVSRRILKCSPPFPPRIGPVAQDLLQRLLCKDPKKRLGAGPQGAQEVRNHPFFQGLDWVALAARKIPAPFRPQIRSELDVGNFAEEFTRLEPVYSPPGSPPPGDPRIFQGYSFVAPSILFDHNNAVMTDGLEAPGAGDRPGRAAVARSAMMQDSPFFQQYELDLREPALGQGSFSVCRRCRQRQSGQEFAVKILSRRLEANTQREVAALRLCQSHPNVVNLHEVHHDQLHTYLVLELLRGGELLEHIRKKRHFSESEASQILRSLVSAVSFMHEEAGVVHRDLKPENILYADDTPGAPVKIIDFGFARLRPQSPGVPMQTPCFTLQYAAPELLAQQGYDESCDLWSLGVILYMMLSGQVPFQGASGQGGQSQAAEIMCKIREGRFSLDGEAWQGVSEEAKELVRGLLTVDPAKRLKLEGLRGSSWLQDGSARSSPPLRTPDVLESSGPAVRSGLNATFMAFNRGKREGFFLKSVENAPLAKRRKQKLRSATASRRGSPAPANPGRAPVASKGAPRRANGPLPPS", "modifications": "left off: a dimerising Fc or GST"}, "B4": {"name": "SGK (protein, UniProt O00141 1-431, looked up)", "Serine/threonine-protein …": "MTVKTEAAKGTLTYSRMRGMVAILIAFMKQRRMGLNDFIQKIANNSYACKHPEVQSILKISQPQEPELMNANPSPPPSPSQQINLGPSSNPHAKPSDFHFLKVIGKGSFGKVLLARHKAEEVFYAVKVLQKKAILKKKEEKHIMSERNVLLKNVKHPFLVGLHFSFQTADKLYFVLDYINGGELFYHLQRERCFLEPRARFYAAEIASALGYLHSLNIVYRDLKPENILLDSQGHIVLTDFGLCKENIEHNSTTSTFCGTPEYLAPEVLHKQPYDRTVDWWCLGAVLYEMLYGLPPFYSRNTAEMYDNILNKPLQLKPNITNSARHLLEGLLQKDRTKRLGAKDDFMEIKSHVFFSLINWDDLINKKITPPFNPNVSGPNDLRHFDPEFTEEPVPNSIGKSPDSVLVTASVKEAAEAFLGFSYAPPTDSFL"}, "B5": {"name": "RPS6KA1(RSK1) (protein)", "chain": "MPLAQLKEPWPLMELVPLDPENGQTSGEEAGLQPSKDEGVLKEISITHHVKAGSEKADPSHFELLKVLGQGSFGKVFLVRKVTRPDSGHLYAMKVLKKATLKVRDRVRTKMERDILADVNHPFVVKLHYAFQTEGKLYLILDFLRGGDLFTRLSKEVMFTEEDVKFYLAELALGLDHLHSLGIIYRDLKPENILLDEEGHIKLTDFGLSKEAIDHEKKAYSFCGTVEYMAPEVVNRQGHSHSADWWSYGVLMFEMLTGSLPFQGKDRKETMTLILKAKLGMPQFLSTEAQSLLRALFKRNPANRLGSGPDGAEEIKRHVFYSTIDWNKLYRREIKPPFKPAVAQPDDTFYFDTEFTSRTPKDSPGIPPSAGAHQLFRGFSFVATGLMEDDGKPRAPQAPLHSVVQQLHGKNLVFSDGYVVKETIGVGSYSECKRCVHKATNMEYAVKVIDKSKRDPSEEIEILLRYGQHPNIITLKDVYDDGKHVYLVTELMRGGELLDKILRQKFFSEREASFVLHTIGKTVEYLHSQGVVHRDLKPSNILYVDESGNPECLRICDFGFAKQLRAENGLLMTPCYTANFVAPEVLKRQGYDEGCDIWSLGILLYTMLAGYTPFANGPSDTPEEILTRIGSGKFTLSGGNWNTVSETAKDLVSKMLHVDPHQRLTAKQVLQHPWVTQKDKLPQSQLSHQDLQLVKGAMAATYSALNSSKPTPQLKPIESSILAQRRVRKLPSTTL", "modifications": "left off: small tags and cut ends"}, "B6": {"name": "RPS6KA2(RSK3) (protein)", "chain": "MDLSMKKFAVRRFFSVYLRRKSRSKSSSLSRLEEEGVVKEIDISHHVKEGFEKADPSQFELLKVLGQGSYGKVFLVRKVKGSDAGQLYAMKVLKKATLKVRDRVRSKMERDILAEVNHPFIVKLHYAFQTEGKLYLILDFLRGGDLFTRLSKEVMFTEEDVKFYLAELALALDHLHSLGIIYRDLKPENILLDEEGHIKITDFGLSKEAIDHDKRAYSFCGTIEYMAPEVVNRRGHTQSADWWSFGVLMFEMLTGSLPFQGKDRKETMALILKAKLGMPQFLSGEAQSLLRALFKRNPCNRLGAGIDGVEEIKRHPFFVTIDWNTLYRKEIKPPFKPAVGRPEDTFHFDPEFTARTPTDSPGVPPSANAHHLFRGFSFVASSLIQEPSQQDLHKVPVHPIVQQLHGNNIHFTDGYEIKEDIGVGSYSVCKRCVHKATDTEYAVKIIDKSKRDPSEEIEILLRYGQHPNIITLKDVYDDGKFVYLVMELMRGGELLDRILRQRYFSEREASDVLCTITKTMDYLHSQGVVHRDLKPSNILYRDESGSPESIRVCDFGFAKQLRAGNGLLMTPCYTANFVAPEVLKRQGYDAACDIWSLGILLYTMLAGFTPFANGPDDTPEEILARIGSGKYALSGGNWDSISDAAKDVVSKMLHVDPHQRLTAMQVLKHPWVVNREYLSPNQLSRQDVHLVKGAMAATYFALNRTPQAPRLEPVLSSNLAQRRGMKRLTSTRL", "modifications": "left off: small tags and cut ends"}, "B7": {"name": "RPS6KB2(p70S6K2) (protein)", "chain": "MAAVFDLDLETEEGSEGEGEPELSPADACPLAELRAAGLEPVGHYEEVELTETSVNVGPERIGPHCFELLRVLGKGGYGKVFQVRKVQGTNLGKIYAMKVLRKAKIVRNAKDTAHTRAERNILESVKHPFIVELAYAFQTGGKLYLILECLSGGELFTHLEREGIFLEDTACFYLAEITLALGHLHSQGIIYRDLKPENIMLSSQGHIKLTDFGLCKESIHEGAVTHTFCGTIEYMAPEILVRSGHNRAVDWWSLGALMYDMLTGSPPFTAENRKKTMDKIIRGKLALPPYLTPDARDLVKKFLKRNPSQRIGGGPGDAADVQRHPFFRHMNWDDLLAWRVDPPFRPCLQSEEDVSQFDTRFTRQTPVDSPDDTALSESANQAFLGFTYVAPSVLDSIKEGFSFQPKLRSPRRLNSSPRAPVSPLKFSPFEGFRPSPSLPEPTELPLPPLLPPPPPSTTAPLPIRPPSGTKKSKRGRGRPGR", "modifications": "left off: a dimerising Fc or GST"}},
  "data": [
    {"test_system": "kinases of Table 6 on Myelin Basic Protein (MBP)", "test": "Kinase assay using MBP substrate, ProQ Diamond stain (Table 6)", "assay_type": "biochemical", "settings": "kinase printed on MBP-coated slide; 20 uM ATP, 30° C.; ProQ Diamond Microarray Stain; graded Strong/Weak/Negative", "method_in_brief": "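Reactions ran at 30° C. with 20 uM ATP, 4 mM MgCl2 and 5% DMSO in HEPES pH 7.5, inhibitor added or omitted. Kinases had been arrayed onto slide-bound dephosphorylated bovine MBP; phospho-signal read after ProQ Diamond staining.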", "values": [
      {"molecule": "B1", "MBP Kinase Activity": "Negative"},
      {"molecule": "B2", "MBP Kinase Activity": "Strong"},
      {"molecule": "B3", "MBP Kinase Activity": "Weak"},
      {"molecule": "B4", "MBP Kinase Activity": "Strong"},
      {"molecule": "B5", "MBP Kinase Activity": "Strong"},
      {"molecule": "B6", "MBP Kinase Activity": "Negative"},
      {"molecule": "B7", "MBP Kinase Activity": "Negative"}
    ]}
  ]
}
